Measurements: the supplement of paper PMC10065799, “High-throughput profiling of sequence recognition by tyrosine kinases and SH2 domains using bacterial peptide display” (eLife, 2023)

Tests used:
[1] = target: EPHB2 (UniProt P29323); experiment: phosphorylation enrichment, bacterial display (enrichment ratio); higher = better substrate or ligand; peptides without Tyr show the background
[2] = target: EPHB1 (UniProt P54762); experiment: as above
[3] = test system: AncSZ; experiment: as above
[4] = test system: c-Src; experiment: as above
[5] = target: Jak2 (UniProt O60674); experiment: as above
[6] = target: FGFR1 (UniProt P11362); experiment: as above
[7] = target: Fyn (UniProt P06241); experiment: as above
[8] = test system: c-Abl (mouse); experiment: as above
[9] = target: FGFR3 (UniProt P22607); experiment: as above
[10] = target: Fes (UniProt P07332); experiment: as above
[11] = target: Hck (UniProt P08631); experiment: as above
[12] = test system: Fer (mouse); experiment: as above
[13] = target: MERTK (UniProt Q12866); experiment: as above
[14] = target: c-Src SH2; experiment: SH2 binding enrichment of the phosphorylated peptide, bacterial display (enrichment ratio); higher = better substrate or ligand; peptides without Tyr show the background
[15] = target: Grb2 SH2 (UniProt P62993); experiment: as above
[16] = target: SHP2-C SH2; experiment: as above
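Throughout, for SH2 binding enrichment of the phosphorylated peptide, bacterial display: peptide library displayed on the E. coli surface as eCPX fusions, selected cells deep-sequenced, score is each peptide's frequency after selection divided by its frequency in the input.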
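Throughout, for phosphorylation enrichment, bacterial display: 11-residue human phosphosite peptides and single-mutation variants displayed on the E. coli surface, counted by deep sequencing, each peptide's frequency after selection divided by its frequency in the unselected input library; frequency after pTyr selection over input frequency; kinase dosed for 20-30% of maximal phosphorylation in three min.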

FGFR1, sequence (P11362 whole entry, looked up): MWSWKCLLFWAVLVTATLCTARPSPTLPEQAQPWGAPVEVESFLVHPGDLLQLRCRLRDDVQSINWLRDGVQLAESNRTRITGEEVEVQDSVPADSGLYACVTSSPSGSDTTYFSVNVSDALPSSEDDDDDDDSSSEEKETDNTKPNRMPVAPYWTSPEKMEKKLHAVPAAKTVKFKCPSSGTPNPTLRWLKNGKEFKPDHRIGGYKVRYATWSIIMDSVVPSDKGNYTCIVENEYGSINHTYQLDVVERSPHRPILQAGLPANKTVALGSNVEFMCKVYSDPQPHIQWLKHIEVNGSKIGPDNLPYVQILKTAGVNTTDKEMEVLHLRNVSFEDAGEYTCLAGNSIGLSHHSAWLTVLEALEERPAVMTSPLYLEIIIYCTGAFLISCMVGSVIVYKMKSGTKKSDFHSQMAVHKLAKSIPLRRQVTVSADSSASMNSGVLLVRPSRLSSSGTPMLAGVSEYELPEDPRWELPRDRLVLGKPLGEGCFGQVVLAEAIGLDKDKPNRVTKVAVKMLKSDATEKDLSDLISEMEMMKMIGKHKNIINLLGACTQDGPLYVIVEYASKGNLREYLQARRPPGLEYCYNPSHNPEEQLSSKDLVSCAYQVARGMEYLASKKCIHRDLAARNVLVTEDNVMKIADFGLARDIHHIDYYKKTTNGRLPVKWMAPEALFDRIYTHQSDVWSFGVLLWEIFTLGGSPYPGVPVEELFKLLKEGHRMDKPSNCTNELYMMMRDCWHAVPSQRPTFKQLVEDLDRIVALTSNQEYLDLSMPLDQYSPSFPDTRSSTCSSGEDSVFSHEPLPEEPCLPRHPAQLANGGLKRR
Fyn, sequence (P06241 whole entry, looked up): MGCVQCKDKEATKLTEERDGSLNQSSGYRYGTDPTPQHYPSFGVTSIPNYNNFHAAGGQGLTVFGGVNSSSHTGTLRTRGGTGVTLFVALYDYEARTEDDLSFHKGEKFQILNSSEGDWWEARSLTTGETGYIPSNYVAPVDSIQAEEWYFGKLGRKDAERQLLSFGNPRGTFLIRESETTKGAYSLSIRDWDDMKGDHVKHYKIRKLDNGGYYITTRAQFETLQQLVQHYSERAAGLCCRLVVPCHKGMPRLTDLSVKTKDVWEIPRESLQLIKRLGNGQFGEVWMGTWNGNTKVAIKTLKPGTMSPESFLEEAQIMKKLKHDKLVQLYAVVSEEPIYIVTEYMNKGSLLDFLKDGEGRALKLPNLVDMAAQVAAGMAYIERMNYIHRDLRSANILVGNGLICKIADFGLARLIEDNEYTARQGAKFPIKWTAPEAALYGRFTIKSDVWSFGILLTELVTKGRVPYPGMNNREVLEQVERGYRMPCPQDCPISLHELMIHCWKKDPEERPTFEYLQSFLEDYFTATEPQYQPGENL
Grb2 SH2, sequence (P62993 whole entry, looked up): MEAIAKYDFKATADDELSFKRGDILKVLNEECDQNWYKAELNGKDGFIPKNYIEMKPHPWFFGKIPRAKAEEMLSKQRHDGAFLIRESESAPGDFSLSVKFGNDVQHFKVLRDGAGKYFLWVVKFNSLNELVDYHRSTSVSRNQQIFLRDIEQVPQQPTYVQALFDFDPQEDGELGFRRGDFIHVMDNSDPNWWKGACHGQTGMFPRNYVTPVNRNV
EPHB2, sequence (P29323 whole entry, looked up): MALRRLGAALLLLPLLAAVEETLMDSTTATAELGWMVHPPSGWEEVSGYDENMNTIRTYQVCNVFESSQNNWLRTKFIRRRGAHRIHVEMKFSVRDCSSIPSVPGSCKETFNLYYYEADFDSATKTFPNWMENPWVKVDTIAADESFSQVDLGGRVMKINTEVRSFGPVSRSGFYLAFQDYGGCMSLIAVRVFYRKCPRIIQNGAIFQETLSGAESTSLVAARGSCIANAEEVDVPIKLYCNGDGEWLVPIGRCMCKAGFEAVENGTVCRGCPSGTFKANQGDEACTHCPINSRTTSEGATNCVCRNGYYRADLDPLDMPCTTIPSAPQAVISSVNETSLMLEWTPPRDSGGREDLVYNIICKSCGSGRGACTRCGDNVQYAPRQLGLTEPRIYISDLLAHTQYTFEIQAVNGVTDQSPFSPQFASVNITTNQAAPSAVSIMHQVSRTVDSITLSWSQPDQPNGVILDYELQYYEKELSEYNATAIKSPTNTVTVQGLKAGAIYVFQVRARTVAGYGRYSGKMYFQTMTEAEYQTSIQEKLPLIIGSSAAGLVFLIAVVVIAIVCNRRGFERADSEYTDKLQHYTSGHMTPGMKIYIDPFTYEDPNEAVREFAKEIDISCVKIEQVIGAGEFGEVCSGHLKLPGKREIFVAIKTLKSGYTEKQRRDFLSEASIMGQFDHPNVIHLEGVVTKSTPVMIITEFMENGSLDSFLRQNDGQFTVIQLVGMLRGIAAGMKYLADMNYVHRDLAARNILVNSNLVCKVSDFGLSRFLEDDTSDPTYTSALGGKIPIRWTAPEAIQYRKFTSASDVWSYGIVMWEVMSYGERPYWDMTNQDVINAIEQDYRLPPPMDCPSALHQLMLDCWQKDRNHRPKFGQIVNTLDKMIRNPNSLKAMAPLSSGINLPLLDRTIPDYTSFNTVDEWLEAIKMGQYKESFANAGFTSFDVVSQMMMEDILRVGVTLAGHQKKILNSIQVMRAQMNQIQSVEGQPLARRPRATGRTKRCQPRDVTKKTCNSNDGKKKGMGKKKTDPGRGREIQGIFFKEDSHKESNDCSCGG
Hck, sequence (P08631 whole entry, looked up): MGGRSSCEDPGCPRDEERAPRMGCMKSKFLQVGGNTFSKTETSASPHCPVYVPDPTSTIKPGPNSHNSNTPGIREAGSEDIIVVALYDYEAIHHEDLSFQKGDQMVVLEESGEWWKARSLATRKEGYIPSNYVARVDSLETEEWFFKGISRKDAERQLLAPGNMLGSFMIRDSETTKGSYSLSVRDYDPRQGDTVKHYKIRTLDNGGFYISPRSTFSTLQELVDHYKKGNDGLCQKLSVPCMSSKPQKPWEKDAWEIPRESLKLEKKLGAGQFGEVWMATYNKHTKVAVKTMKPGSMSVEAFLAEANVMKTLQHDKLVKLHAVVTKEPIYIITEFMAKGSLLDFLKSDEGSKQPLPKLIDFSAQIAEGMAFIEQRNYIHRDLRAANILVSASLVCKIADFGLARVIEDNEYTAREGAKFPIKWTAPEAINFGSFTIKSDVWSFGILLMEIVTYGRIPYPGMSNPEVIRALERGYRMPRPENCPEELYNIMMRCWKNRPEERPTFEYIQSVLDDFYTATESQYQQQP
Jak2, sequence (O60674 whole entry, looked up): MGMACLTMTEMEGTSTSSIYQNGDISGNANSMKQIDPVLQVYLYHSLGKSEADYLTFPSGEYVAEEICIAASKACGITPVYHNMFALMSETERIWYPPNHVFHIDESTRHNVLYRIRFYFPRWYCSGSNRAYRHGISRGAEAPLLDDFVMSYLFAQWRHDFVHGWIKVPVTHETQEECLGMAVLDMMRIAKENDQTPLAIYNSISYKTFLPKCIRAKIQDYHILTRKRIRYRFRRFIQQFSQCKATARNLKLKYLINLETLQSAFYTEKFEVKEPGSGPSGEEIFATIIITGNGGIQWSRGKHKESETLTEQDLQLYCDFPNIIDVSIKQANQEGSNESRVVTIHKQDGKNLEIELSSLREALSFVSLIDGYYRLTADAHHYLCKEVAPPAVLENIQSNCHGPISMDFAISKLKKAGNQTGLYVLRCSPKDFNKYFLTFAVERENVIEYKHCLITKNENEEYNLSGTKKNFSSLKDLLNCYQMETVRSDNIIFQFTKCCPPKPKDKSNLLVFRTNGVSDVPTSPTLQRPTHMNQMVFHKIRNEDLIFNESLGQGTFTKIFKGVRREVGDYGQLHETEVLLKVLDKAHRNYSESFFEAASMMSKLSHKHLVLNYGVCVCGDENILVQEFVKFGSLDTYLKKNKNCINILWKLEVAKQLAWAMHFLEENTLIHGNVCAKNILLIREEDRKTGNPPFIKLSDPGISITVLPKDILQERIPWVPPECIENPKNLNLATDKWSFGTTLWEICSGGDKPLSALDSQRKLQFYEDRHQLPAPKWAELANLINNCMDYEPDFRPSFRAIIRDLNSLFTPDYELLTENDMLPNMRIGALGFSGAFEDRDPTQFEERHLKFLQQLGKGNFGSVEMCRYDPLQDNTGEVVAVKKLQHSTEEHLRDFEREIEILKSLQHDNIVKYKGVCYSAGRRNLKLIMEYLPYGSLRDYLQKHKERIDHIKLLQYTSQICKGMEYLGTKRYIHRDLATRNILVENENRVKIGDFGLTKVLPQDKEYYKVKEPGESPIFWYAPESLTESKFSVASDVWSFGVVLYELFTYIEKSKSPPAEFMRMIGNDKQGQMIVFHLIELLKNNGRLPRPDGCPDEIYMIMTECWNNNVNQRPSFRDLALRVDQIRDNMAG

Row | Sequence | phosphorylation enrichment [1] | phosphorylation enrichment [2] | phosphorylation enrichment [3] | phosphorylation enrichment [4] | phosphorylation enrichment [5] | phosphorylation enrichment [6] | phosphorylation enrichment [7] | phosphorylation enrichment [8] | phosphorylation enrichment [9] | phosphorylation enrichment [10] | phosphorylation enrichment [11] | phosphorylation enrichment [12] | phosphorylation enrichment [13] | SH2 binding enrichment [14] | SH2 binding enrichment [15] | SH2 binding enrichment [16]
1 | EQKKYYNATKK [SCN5A_Y1495_M1498T] | 0.383 | 0.399 | 0.478 | 0.411 | 0.503 | 0.343 | 0.375 | 0.485 | 0.387 | 0.54 | 0.384 | 0.407 | 0.371 | 0.731 | 1.16 | 1.04
2 | NDHHFYLEGTL [ALDOB_Y223_V222F] | 0.547 | 0.497 | 0.939 | 0.392 | 0.964 | 0.489 | 0.398 | 0.646 | 0.696 | 1.19 | 0.43 | 0.498 | 0.409 | 0.67 | 0.787 | 0.745
3 | PFQGAYLEINK [MYO1B_Y967] | 0.577 | 0.609 | 1.03 | 0.607 | 1.24 | 0.485 | 0.526 | 0.497 | 0.763 | 1.09 | 0.361 | 0.401 | 0.464 | 7.89 | 0.874 | 0.832
4 | RYLTRYIYNRE [HLA-DQB1_Y62_V59L] | 0.773 | 4.73 | 1.91 | 1.57 | 1.92 | 0.564 | 1.11 | 1.07 | 0.772 | 1.32 | 0.621 | 0.813 | 3.87 | 0.627 | 1.11 | 0.763
5 | DHAGEYGAEAL [HBA1_Y25_A20D] | 0.569 | 0.426 | 0.86 | 0.405 | 0.675 | 0.509 | 0.427 | 0.546 | 0.621 | 0.892 | 0.495 | 0.403 | 0.343 | 0.506 | 0.825 | 1.11
6 | DRLASYLDKAR [KRT14_Y129_V133A] | 0.324 | 0.297 | 0.586 | 0.349 | 0.627 | 0.37 | 0.373 | 0.914 | 0.45 | 0.634 | 0.342 | 0.403 | 0.378 | 0.419 | 0.874 | 0.59
7 | INASGYRVGPA [ACSM1_Y477_I479V] | 0.485 | 0.564 | 0.652 | 0.51 | 0.523 | 0.595 | 0.411 | 0.615 | 0.629 | 0.901 | 0.643 | 0.563 | 0.49 | 0.358 | 0.853 | 0.691
8 | ATQDNYVLEVR [PTPRZ1_Y2179_D2178N] | 0.458 | 0.502 | 0.934 | 0.38 | 0.821 | 0.489 | 0.452 | 0.6 | 0.676 | 1.08 | 0.411 | 0.486 | 0.45 | 0.628 | 0.651 | 0.557
9 | YGTAQYCCRMG [LRRK2_Y2023_I2020T] | 9.81 | 0.714 | 0.719 | 0.757 | 0.506 | 0.498 | 1.01 | 3.23 | 0.603 | 0.613 | 1.2 | 0.603 | 2.78 | 0.823 | 0.991 | 0.752
10 | LFCVHYFHRTF [SRD5A2_Y91] | 1.24 | 1.26 | 2.32 | 1.14 | 2.73 | 1.04 | 1.04 | 2.35 | 1.97 | 2.73 | 1.16 | 1.47 | 0.989 | 0.918 | 1.3 | 1.08
11 | HSKGIYFVQLE [MGAT4B_Y262_Q257H_YF] | 0.911 | 0.853 | 1.87 | 1.65 | 2.27 | 1.38 | 1.03 | 1.31 | 1.75 | 2.53 | 1.12 | 0.711 | 3.31 | 1.08 | 1.53 | 1.45
12 | TTICKYSTPME [GUCY2C_Y839] | 0.488 | 0.395 | 0.798 | 0.474 | 0.756 | 0.608 | 0.35 | 0.63 | 0.567 | 0.801 | 0.413 | 0.351 | 0.446 | 1.05 | 0.924 | 0.967
13 | HLQQSNLPRGT [TEX45_Y396_Y396N] | 0.451 | 0.447 | 0.639 | 0.42 | 0.689 | 0.491 | 0.445 | 0.703 | 0.644 | 0.757 | 0.534 | 0.279 | 0.467 | 0.748 | 0.837 | 0.583
14 | ESVNTYLQTSP [NAT1_Y208_M205V] | 0.838 | 0.538 | 0.874 | 0.589 | 0.799 | 0.386 | 0.441 | 0.655 | 0.577 | 0.887 | 0.556 | 0.49 | 0.588 | 0.395 | 0.762 | 0.527
15 | HNMPIYEGFAL [ACTA1_Y168_V165M_YF] | 32.9 | 24.3 | 1.44 | 13.2 | 0.859 | 0.704 | 21.5 | 29.2 | 0.786 | 5.34 | 15.6 | 26.7 | 14.7 | 0.431 | 0.607 | 0.847
16 | FLEKFYKFGSR [NNMT_Y25_YF] | 0.6 | 0.592 | 0.723 | 0.365 | 0.679 | 0.571 | 0.413 | 0.551 | 0.548 | 0.746 | 0.341 | 0.389 | 0.433 | 0.428 | 0.883 | 0.789
17 | NREGVYRVFAP [TGFBI_Y537_T538R] | 0.376 | 0.364 | 0.603 | 4.67 | 0.484 | 0.409 | 4.68 | 0.636 | 0.495 | 0.556 | 1.79 | 0.397 | 0.533 | 0.436 | 0.755 | 0.774
